pKd: −log10 of the molar value. Several values for one entry are separate records, joined by “and”; a condition that tells them apart may be missing. Equal values may be shown once.
What was measured:
[1] = biological target: His-tagged recombinant mouse LDLR (mouse) (UniProt P35951); assay: SPR; His-tagged LDLR immobilised on a NiHC1000m sensor chip; VH4127 (10-160 nM) or Fc(A680)-VH4127 (1-16 nM) injected, single-cycle kinetics; 1:1 Langmuir model; Biacore T200
[2] = biological target: His-tagged recombinant human LDLR (human) (UniProt P01130); assay: SPR; His-tagged mouse or human LDLR immobilised on a NiHC1000m sensor chip; VH4127 (10-160 nM) or Fc(A680)-VH4127 (1-16 nM) injected, single-cycle kinetics; double-subtracted sensorgrams fitted globally with the 1:1 Langmuir model (Biacore T200)
[3] = biological target: His-tagged recombinant mouse LDLR (mouse) (UniProt P35951); assay: SPR; His-tagged LDLR immobilised on a NiHC1000m sensor chip; VH4127 (10-160 nM) injected, single-cycle kinetic method; double-subtracted sensorgrams fitted globally with the 1:1 Langmuir model (Biacore T200)
[4] = biological target: His-tagged recombinant human LDLR (human) (UniProt P01130); assay: as above

His-tagged recombinant human LDLR (human), sequence (P01130 22-788): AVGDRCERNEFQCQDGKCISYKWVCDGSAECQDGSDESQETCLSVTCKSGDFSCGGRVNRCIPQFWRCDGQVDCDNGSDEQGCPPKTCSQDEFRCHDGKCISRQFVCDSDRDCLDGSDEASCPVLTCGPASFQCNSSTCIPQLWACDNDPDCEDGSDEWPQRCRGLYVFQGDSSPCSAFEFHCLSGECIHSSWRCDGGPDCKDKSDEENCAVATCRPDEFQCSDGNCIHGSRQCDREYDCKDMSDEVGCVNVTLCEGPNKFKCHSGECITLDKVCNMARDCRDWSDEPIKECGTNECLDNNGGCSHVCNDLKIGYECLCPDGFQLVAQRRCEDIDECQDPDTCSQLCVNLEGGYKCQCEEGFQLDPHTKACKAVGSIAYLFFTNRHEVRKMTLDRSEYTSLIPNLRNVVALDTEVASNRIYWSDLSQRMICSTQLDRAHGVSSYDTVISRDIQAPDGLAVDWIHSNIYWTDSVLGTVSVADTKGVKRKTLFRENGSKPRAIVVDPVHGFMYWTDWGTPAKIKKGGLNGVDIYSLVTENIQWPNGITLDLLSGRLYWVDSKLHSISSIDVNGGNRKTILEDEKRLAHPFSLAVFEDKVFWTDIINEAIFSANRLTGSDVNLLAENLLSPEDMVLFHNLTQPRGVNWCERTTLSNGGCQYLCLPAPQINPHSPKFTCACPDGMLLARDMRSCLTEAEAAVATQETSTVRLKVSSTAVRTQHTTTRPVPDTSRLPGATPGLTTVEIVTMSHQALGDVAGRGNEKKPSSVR
His-tagged recombinant mouse LDLR (mouse), sequence (P35951 22-790): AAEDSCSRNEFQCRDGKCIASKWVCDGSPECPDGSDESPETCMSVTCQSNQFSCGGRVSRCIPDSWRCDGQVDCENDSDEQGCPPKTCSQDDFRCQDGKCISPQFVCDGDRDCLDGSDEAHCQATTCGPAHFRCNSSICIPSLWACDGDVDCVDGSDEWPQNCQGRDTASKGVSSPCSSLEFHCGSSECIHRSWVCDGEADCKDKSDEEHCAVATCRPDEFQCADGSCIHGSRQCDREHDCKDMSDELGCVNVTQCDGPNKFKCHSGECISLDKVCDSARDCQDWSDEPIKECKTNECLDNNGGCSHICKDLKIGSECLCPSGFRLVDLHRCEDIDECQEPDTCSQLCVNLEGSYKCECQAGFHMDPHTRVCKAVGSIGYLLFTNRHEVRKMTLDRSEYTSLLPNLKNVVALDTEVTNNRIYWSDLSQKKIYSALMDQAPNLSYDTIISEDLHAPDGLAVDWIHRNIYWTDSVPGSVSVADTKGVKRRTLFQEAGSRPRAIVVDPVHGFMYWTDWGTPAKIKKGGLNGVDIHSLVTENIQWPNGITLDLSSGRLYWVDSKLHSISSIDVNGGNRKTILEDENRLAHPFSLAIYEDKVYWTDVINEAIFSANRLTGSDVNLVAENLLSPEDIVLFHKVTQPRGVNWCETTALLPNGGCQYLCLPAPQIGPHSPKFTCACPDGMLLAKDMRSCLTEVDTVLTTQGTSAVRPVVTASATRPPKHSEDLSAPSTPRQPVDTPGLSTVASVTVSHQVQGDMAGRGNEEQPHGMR

pKd [1]	pKd [2]	koff [3] [s⁻¹]	kon [3] [M⁻¹ s⁻¹]	koff [4] [s⁻¹]	kon [4] [M⁻¹ s⁻¹]	Substance
10.04						Fc(A680)-VH4127 conjugate (Fc fusion)
	7.67 and 7.70 and 7.63	0.0821	1.66e+06	0.0894	4.06e+06	VH4127 peptide

Reference: article PMC8377056
